Laboratory results as given in patent publication US20250296984A1, “THERAPEUTIC AND DIAGNOSTIC AGENTS AND USES THEREOF” (priority 2022, published 2025).

What was measured:
[1] = test system: human heart muscle tissue; assay: Immunohistochemistry (IHC) on human cardiac tissues; details: FIG. 19 B
Procedure: Cytomegalovirus (CMV) control slides containing CMV positive lung tissue and CMV negative myometrium (product number #3240A) were obtained from Newcomer Supply Inc., Middleton, WI 53562-2579, USA. Tissue micro-arrays (TMAs) were obtained from US Biomax Inc., Derwood, MD 20855, USA, and included tumor tissues #BR1008b, #BS17016c, #BCN721b and normal tissues #FDA662a and heart tissues #HEN241a.
The paraffin sections were sequentially immersed into a. 100% xylene three times (5 min each); b. 100% ethanol twice (2 min each); c. 95% ethanol twice (2 min each). The slides were rinsed twice in water for 5 min to remove ethanol. […], the slides were immersed in 3% H2O2 for 5 minutes and washed thereafter twice (2×) with distilled water. The slides were then immersed in the working citrate buffer (pH 6.0) and covered with a lid. The buffer was heated in the microwave until it had boiled, and then kept in the steamer for 15 min.
The sections were cooled at room temperature for 30 min and washed with PBS. 5% BSA blocking solution was then added to the HIER treated samples and they were incubated at 37° C. for 30 min. […] Digitized pictures were taken by Olympus VS120 scanner and analyzed by using OlyVia 3.2 software (Olympus Corporation, 20101 Tokyo, Japan) by senior Pathologist. […]

[2] = molecular target: T1, Peptide-N […] (SEQ ID NO: 177), HCMV US28 ECD1 (Human cytomegalovirus, UniProt P69332); assay: ELISA, binding to Peptide-N (Bio-Peptide-N / Peptide-N-BSA coating)
T1 construct: Peptide-N was prepared via chemical synthesis: […]; made in house; host or cells: chemical synthesis
Procedure: Microtiter plate wells were coated with 100 μl of the solution containing: (i) Bio-Peptide-N; or (ii) Bio-Peptide-1 and Bio-Peptide-2; at a concentration of between 1-10 μg/ml in coating buffer, consisting of Na2CO3, 1.5 g and NaHCO3, 2.93 g in 1 L of distilled water in pH 9.6, and then incubated for 1-2 hours at room temperature. The plate was washed 3 times in wash buffer consisting of PBS containing 0.05% v/v Tween-20 and blotted with paper towels thereafter. 150 μl of blocking solution containing Phosphate buffered saline (PBS) containing 1% w/v BSA, was added to each well and the plate was incubated for 2 hours at 37° C. The wells were washed 4 times in wash buffer and blotted on paper towels after the last wash. 100 μl of antibody dilution was added to each well and the plate was incubated for 1 hour at 37° C. and thereafter washed 3 times in wash buffer. 100 μl enzyme-conjugated secondary antibody (appropriately diluted in wash buffer) was added to each well and the plate was incubated for 1 hour at 37° C. The wells were then again washed 3 times in wash buffer and blotted with paper towels after the last wash. […] The absorbance values were read immediately at the appropriate wavelength and the data analyzed by Cmax Plus, Molecular Devices, San Jose, CA 95134, USA,

Row | Molecule | off-target binding in IHC [1] | absorbance, Coating: Peptide-N-BSA ([2]; ELISA absorbance, ECD1 subclones) | qualitative ELISA binding to Bio-Peptide-N ([2]; recombinant antibodies)
1 | 13-5G6-1D3: mouse monoclonal IgG1 kappa antibody against US28 ECD3; VH SEQ ID NO: 12, VL SEQ ID NO: 18 (antibody, V domains shown, Mature form of VH sequence of 1D3, without the leader sequence; Mature form of VL sequence of 1D3, without the leader sequence) VH: EVKLVESGGGLVQPGGSLRLACATSGFTFTDYYMSWVRQPPGKALEWLGFIRSKANGYTTEYSASVKGRFTISRDNSQSILYLQMNTLRSEDSATYYCARDERRTAWLAYWGQGTLVTVSA VL: DVLMTQTPLSLPVSLGDQASISCRSSQSIVHSNGNTYLDWYLQKPGQSPKLLIYKVSNRFSGVPDRFSGSGSGTDFTLKISRVEAEDLGVYYCFQGSHVPTWTFGGGTKLEIK | did not show any general off-target binding | – | –
2 | 7B1F3: mouse IgG1 kappa antibody against US28 ECD1 Peptide-N; VH SEQ ID NO: 211, VL SEQ ID NO: 213 (antibody, V domains shown, Mature form of VH sequence of 7B1F3, without the leader sequence; Mature form of VL sequence of 7B1F3, without the leader sequence) VH: EVQLQQSGAELAKPGASVKMSCKASGYTFTNYWMHWVKQRPGQGLEWIGYVNPRTGYTEYNQKFKDKATLTADKSSRTAYMQLSSLTSEDSAVYSCARILNGTGFAYWGQGTLVTVSA VL: DIVLTQSPSSLTVSVGEKFTMSCKSSQSLLYSSNQKNYLAWYQQKPGQSPKLLIYWASTRESGVPDRFTGSGSGTDFTLAISSVKPEDLAIYYCQQYYSFPLTFGAGTKLEIK | – | 2.7989 | equal, strong and high binding affinity
